Experimental findings from patent publication US20030069395A1 (DYAX, published 2003) are described below.

Bridges are numbered along the chain shown (N, C = ends). Where no end group is shown, it is not given here. fluorescein = fluorescein label A value given as a limit tells only on which side of the number the result lay.

Assay [1] deals with T1, human serum albumin (HSA) (human, UniProt P02768 25-609).
T1 construct: also called caprylate-biotinylated-HSA
The assay can be described thus: phage ELISA on immobilised caprylate-HSA, HRP anti-M13 antibody. The method, then:
Phage were selected as described below from a pool of three phage libraries (TN6/6, TN10/9, TN12/1). Phage were tested for ability to bind to HSA an in ELISA format using caprylate-bound HSA, which had been passively immobilized on the surface of wells of a microtiter assay plate. Binding of phage to immobilized HSA was detected by adding HRP-conjugated anti-M13 antibody. Following addition of TMB substrate, the absorbance at 620 nm was read with an automated plate reader. Phage bound to HSA is shown by diagonal striped bars; control wells (no HSA) is shown by open bars.
For analysis of caprylate-HSA as a target, Immulon 2HB plates were prepared by the addition of 340 μl/well of caprylate-HSA at 5.6 μg/ml. The plates were incubated overnight at 4° C. The HSA-coated plates were then washed robotically with PBSCT six times (BioTek 404, BioTek Instruments). To account for plate binders, empty plates were also washed. An equal volume of each phage clone isolate was added to a plate well containing 70 μl PBSCT in both the target plate and the control plate. Plates were incubated for one hour at room temperature. The plates were washed seven times with PBSCT using the BioTek 404 apparatus. A 1:10,000 dilution of Pharmacia HRP-αM13 antibody conjugate in PBSCT was added to each well, at 100 μl/well. Plates were incubated for one hour. After incubation, plates were washed six times with PBSCT using the BioTek 404 apparatus. Following the wash, 100 μl of a 1:1 solution of the two-component TMB substrate solution was added to each well, and the plates incubated for 30 minutes. The plates were then read at 620 nm with an automatic BioTek plate reader.

In assay [2] the target is T1, human serum albumin (HSA). Description: fluorescence anisotropy, fluorescein-labelled peptide, PBS. The method, then:
Affinity determinations were made by first labeling polypeptides on the C-terminal end with NHS-fluorescein. Fluorescence anisotropy measurements were performed in 384-well microplates in a volume of 10 μl in binding buffer using a Tecan Polarion fluorescence polarization plate reader. The concentration of fluorescein labeled peptide was held constant (20 nM), and the concentration of HSA was varied. For pH 6.2, 7.1, and 7.4 binding conditions, a 3 mM phosphate, 0.01% Tween-20 buffer was used. For pH 9.1 binding conditions, a 3 mM sodium bicarbonate buffer, 0.01% Tween-20 nonionic detergent buffer was used. Once NaCl was added to any of these buffers, their pH was adjusted again to achieve the original pH. The binding mixtures were equilibrated for 10 minutes in the microplate at 30° C. prior to performing the measurement. The observed change in anisotropy was fit to the equation below via nonlinear regression to obtain the apparent KD. This equation assumes that the peptide and HSA form a reversible complex with 1:1 stoichiometry.
Selected HSA binding polypeptides from these additional library selections were synthesized, fluorescein-labeled as in Example 1, and tested to determine an apparent KD for HSA in PBS. The polypeptides were synthesized to include an acetylated N-terminal dipeptide and a C-terminal dipeptide corresponding to the constant flanking amino acids immediately adjacent the display peptide as expressed on phage in the respective phage display libraries. The polypeptides were also synthesized with a C-terminal -Gly-Gly-Gly-Lys (SEQ ID NO: 24). The terminal Lys residue was amidated.

B1: phage isolate displaying FWFCDRIAWYPQHLCEFLD (SEQ ID NO: 246) (peptide)
chain: FWFCDRIAWYPQHLCEFLD
modifications: not fully specified (bridges); cysteine pairing not given here
notes: Whole phage in the ELISA; not shown: protein III of M13 phage; the display peptide stands at its amino terminus
For the molecule B1, in assay [1], the binding result is on record as “binds”.

As to Ac-GDLRSCFTYYPFTTFSCSPADPGGGK(fluorescein)-NH2 (disulfide 6-17 (inferred)) [DX-1091, Ac-GDLRSCFTYYPFTTFSCSPADPGGGK-NH2], the Kd in assay [2] was above 10 µM.

B2: DX-1179, Ac-AGYQFCTWDPIFCGWHGTGGGK-NH2 (peptide)
peptide: Ac-AGYQFCTWDPIFCGWHGTGGGK(fluorescein)-NH2
modifications: not fully specified (bridges); printed as Ac-AGYQFCTWDPIFCGWHGTGGGK-NH2; cysteine pairing not given here
B2: the Kd in assay [2] was determined as 185 µM.

B3: DX-1163, Ac-GDDSMCITWPFKRPWPCANDPGGGK-NH2 (peptide)
peptide: Ac-GDDSMCITWPFKRPWPCANDPGGGK(fluorescein)-NH2
modifications: not fully specified (bridges); printed as Ac-GDDSMCITWPFKRPWPCANDPGGGK-NH2; cysteine pairing not given here
In assay [2], B3 yielded a Kd of 42 µM.

B4: phage isolate displaying DWDCVTRWANRDQQCWAL (SEQ ID NO: 248) (peptide)
chain: DWDCVTRWANRDQQCWAL
modifications: not fully specified (bridges); cysteine pairing not given here
notes: as for B1
With B4, the binding result in assay [1] is “binds”.

B5: DX-1175, Ac-AGWTTCHIYDWFCSSSGTGGGK-NH2 (peptide)
peptide: Ac-AGWTTCHIYDWFCSSSGTGGGK(fluorescein)-NH2
modifications: not fully specified (bridges); printed as Ac-AGWTTCHIYDWFCSSSGTGGGK-NH2; cysteine pairing not given here
Turning to B5, the Kd in assay [2] was 30 µM.

B6: phage isolate displaying FKICDQWFCLMP (SEQ ID NO: 240) (peptide)
chain: FKICDQWFCLMP
modifications: not fully specified (bridges); cysteine pairing not given here
notes: as for B1
For the molecule B6, in assay [1], the binding result was “binds”.

With Ac-GDFSLCWIVDEDGTKWCLPDPGGGK(fluorescein)-NH2 (disulfide 6-17 (inferred)) [DX-997, Ac-GDFSLCWIVDEDGTKWCLPDPGGGK-NH2], the Kd in assay [2] is above 10 µM.

B7: DX-1177, Ac-AGLEYCFYQWWGCPHAGTGGGK-NH2 (peptide)
peptide: Ac-AGLEYCFYQWWGCPHAGTGGGK(fluorescein)-NH2
modifications: not fully specified (bridges); printed as Ac-AGLEYCFYQWWGCPHAGTGGGK-NH2; cysteine pairing not given here
As to B7, the dissociation constant Kd in assay [2] was 153 µM.

In the case of Ac-GDNDGCTDTNWSWMFDCPPLDPGGGK(fluorescein)-NH2 (disulfide 6-17 (inferred)) [DX-1165, Ac-GDNDGCTDTNWSWMFDCPPLDPGGGK-NH2], in assay [2], the Kd was above 10 µM.

B8: phage isolate displaying HVGCNNALCMQY (SEQ ID NO: 241) (peptide)
chain: HVGCNNALCMQY
modifications: not fully specified (bridges); cysteine pairing not given here
notes: as for B1
With B8, the binding result in assay [1] is listed as “binds”.

B9: phage isolate displaying RNMCKFSWIRSPAFCARADP (SEQ ID NO: 251) (peptide)
chain: RNMCKFSWIRSPAFCARADP
modifications: not fully specified (bridges); cysteine pairing not given here
notes: as for B1
Consider B9, for which the binding result in assay [1] is listed as “binds”.

B10: phage isolate displaying NHGCWHFSCIWD (SEQ ID NO: 243) (peptide)
chain: NHGCWHFSCIWD
modifications: not fully specified (bridges); cysteine pairing not given here
notes: as for B1
In the case of B10, the binding result in assay [1] was “binds”.

B11: phage isolate displaying VAWCTIFLCLDV (SEQ ID NO: 239) (peptide)
chain: VAWCTIFLCLDV
modifications: not fully specified (bridges); cysteine pairing not given here
notes: Whole phage in the ELISA; the constant phage residues that flank the display peptide are not spelled out for the phage construct; not shown: protein III of M13 phage; the display peptide stands at its amino terminus
Regarding B11, in assay [1], the binding result is “binds”.

B12: DX-1171, Ac-GSRSFCMDWPNHRDCDYSAPGGGK-NH2 (peptide)
peptide: Ac-GSRSFCMDWPNHRDCDYSAPGGGK(fluorescein)-NH2
modifications: not fully specified (bridges); printed as Ac-GSRSFCMDWPNHRDCDYSAPGGGK-NH2; cysteine pairing not given here
In assay [2], B12 had a Kd of 165 µM.

Ac-GSLWDCWLYDCEGNAPGGGK(fluorescein)-NH2 (disulfide 6-11 (inferred)) [DX-1093, Ac-GSLWDCWLYDCEGNAPGGGK-NH2] showed a Kd in assay [2] above 10 µM.

In assay [2], Ac-AGKWYCAWDPLVCEIFGTGGGK(fluorescein)-NH2 (disulfide 6-13 (inferred)) [DX-1173, Ac-AGKWYCAWDPLVCEIFGTGGGK-NH2] gave a Kd above 10 µM.

B13: phage isolate displaying ADFCEGKDMIDWVYCRLY (SEQ ID NO: 245) (peptide)
chain: ADFCEGKDMIDWVYCRLY
modifications: not fully specified (bridges); cysteine pairing not given here
notes: as for B1
With B13, the binding result in assay [1] was “binds”.

Ac-GDRNMCKFSWIRSPAFCARADPGGGK(fluorescein)-NH2 (disulfide 6-17 (inferred)) [DX-321 of Table 9, Ac-GDRNMCKFSWIRSPAFCARADPGGGK-NH2] came in with a Kd in assay [2] above 10 µM.

B14: phage isolate displaying FRNCEPWMLRFGCNPR (SEQ ID NO: 244) (peptide)
chain: FRNCEPWMLRFGCNPR
modifications: not fully specified (bridges); cysteine pairing not given here
notes: as for B1
With B14, the binding result in assay [1] was “binds”.

B15: phage isolate displaying WKVCDHFFCLSP (SEQ ID NO: 242) (peptide)
chain: WKVCDHFFCLSP
modifications: not fully specified (bridges); cysteine pairing not given here
notes: as for B1
In the case of B15, in assay [1], the binding result is given as “binds”.

As to Ac-GDSPYCKIALFQHFEVCAADDPGGGK(fluorescein)-NH2 (disulfide 6-17 (inferred)) [DX-1167, Ac-GDSPYCKIALFQHFEVCAADDPGGGK-NH2], the Kd in assay [2] was above 10 µM.

Consider Ac-GDSFCVTYIGTWETVCKRSDPGGGK(fluorescein)-NH2 (disulfide 5-16 (inferred)) [DX-1089, Ac-GDSFCVTYIGTWETVCKRSDPGGGK-NH2], for which the Kd in assay [2] is above 10 µM.

B16: phage isolate displaying DWDCVTDWANRHQHCWAL (SEQ ID NO: 249) (peptide)
chain: DWDCVTDWANRHQHCWAL
modifications: not fully specified (bridges); cysteine pairing not given here
notes: as for B1
For B16, the binding result in assay [1] is reported as “binds”.

B17: phage isolate displaying DWQCVKDWANRRRGCMAD (SEQ ID NO: 250) (peptide)
chain: DWQCVKDWANRRRGCMAD
modifications: not fully specified (bridges); cysteine pairing not given here
notes: as for B1
Take B17: the binding result in assay [1] is “binds”.

B18: DX-1002, Ac-GDLRDCQTTWPFTMMQCPNNDPGGGK-NH2 (peptide)
peptide: Ac-GDLRDCQTTWPFTMMQCPNNDPGGGK(fluorescein)-NH2
modifications: not fully specified (bridges); printed as Ac-GDLRDCQTTWPFTMMQCPNNDPGGGK-NH2; cysteine pairing not given here
The molecule B18 had a Kd in assay [2] of 4 µM.
